Data set [1] relates to NF-kB (endogenous, A549 cells) (Homo sapiens). Kind of data set: cell_activity. The settings on record: A549, day 2 (89% day 1); 1 pmol transfected; indirect evidence of binding.
In data set [2] the target is T1, NF-kB p50 subunit (NFKB1) (UniProt P19838 P19838:1-433). Description: EMSA; 1 pmol RNA, 0-10 pmol p50; 20 mM Tris-HCl pH 8.0, 50 mM NaCl, 1 mM MgCl2, RT 20 min; affinity similar to linear. The settings on record: tags: Cayman Chemical 10009818; chain copies: 2; circular (ligated with RNA ligase 1), aptamer hairpin with poly(A) flanks; printed with T, is RNA. As for the experimental part: (§1) Electrophoretic mobility shift assay (EMSA) was performed to assess circular RNA binding affinity to NF-kB. One pmole of linear or circular RNA was incubated with recombinant NF-kB p50 subunit (Caymen Chemical, 10009818) at varying concentrations over the RNA concentration (i.e., 0, 0.1, 1, 10 pmoles of protein) for 20 minutes at room temperature in a buffered reaction (20 mM Tris-HCl, pH 8.0, 50 mM NaCl, 1 mM MgCl2). Samples were run a 6% TBE Urea gel for 25 minutes at 200V. Gels were stained with SybrGold (Thermo Scientific, S11494) and imaged with a blue E-gel imaging system (Thermo Scientific, 4466612).

Data set [3] has as its target T1, NF-kB p50 subunit (NFKB1). Kind of data set: EMSA; 1 pmol RNA, 0-10 pmol p50; 20 mM Tris-HCl pH 8.0, 50 mM NaCl, 1 mM MgCl2, RT 20 min; affinity similar to circular. The following applies: tags: Cayman Chemical 10009818; chain copies: 2; linear; printed with T, is RNA. The procedure:
as §1
In general terms: A gel shift assay detects complexes by their altered migration in electrophoresis.

In data set [4] the target is T1, NF-kB p50 subunit (NFKB1). Description: EMSA; scrambled control, same buffer. The following applies: tags: Cayman Chemical 10009818; chain copies: 2; hairpin; printed with T, is RNA. As for the experimental part:
as §1

T1 sequence (P19838 1-433, one chain of several): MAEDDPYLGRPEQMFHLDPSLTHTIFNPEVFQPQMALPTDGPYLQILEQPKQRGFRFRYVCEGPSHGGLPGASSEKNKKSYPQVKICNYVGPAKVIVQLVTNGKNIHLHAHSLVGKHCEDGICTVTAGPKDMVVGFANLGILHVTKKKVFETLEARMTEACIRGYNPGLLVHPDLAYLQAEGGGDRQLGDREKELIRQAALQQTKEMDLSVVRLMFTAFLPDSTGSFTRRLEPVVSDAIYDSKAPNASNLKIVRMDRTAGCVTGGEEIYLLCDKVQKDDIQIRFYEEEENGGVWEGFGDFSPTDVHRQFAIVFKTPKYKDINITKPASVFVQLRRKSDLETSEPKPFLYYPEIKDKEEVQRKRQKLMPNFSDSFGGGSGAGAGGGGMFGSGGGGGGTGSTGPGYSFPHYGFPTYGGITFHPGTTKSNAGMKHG

On to “AAAAAAAAAAGAUCUUGAAACUGUUUUAAGGUUGGCCGAUCUUAAAAAA [circular NF-kB aptamer RNA]”, for which the activity in data set [1] stood at 86 % viability.

B1: circular NF-kB aptamer RNA (ssRNA)
RNA: AAAAAAAAAAGAUCUUGAAACUGUUUUAAGGUUGGCCGAUCUUAAAAAA
On to B1, for which, in data set [2], the binding result was “binds”.

B2: linear NF-kB aptamer RNA (ssRNA)
RNA: AAAAAAAAAAGAUCUUGAAACUGUUUUAAGGUUGGCCGAUCUUAAAAAA
modifications: 5' monophosphate
As to B2, in data set [3], the binding result was “binds”.

B3: scrambled control RNA (ssRNA)
RNA: AAAAAAAUUCUCCGAACGUGUCACGUUUCAAGAGAACGUGACACGUUCGGAGAAAAAAAA
Turning to B3, in data set [4], the binding result is “no binding”.

The values above are taken from patent publication US20210292761, “COMPOSITIONS COMPRISING CIRCULAR POLYRIBONUCLEOTIDES AND USES THEREOF” (FLAGSHIP PIONEERING INNOVATIONS VI, LLC, published 2021).
